Assay results as given in US20240132578A1.

Assays:
Experiment in all cases: cell-based or functional assay
[1] = molecular target: HIV-1 envelope glycoprotein (Env) of isolate MGRM-C-005 (HIV-1)
[2] = molecular target: HIV-1 envelope glycoprotein (Env) of isolate MGRM-C-015 (HIV-1)
[3] = molecular target: HIV-1 Env of isolate SC422661.8 (Acute), clade B (HIV-1)
[4] = molecular target: HIV-1 MGRM-AG-013 Env (pseudovirus) (HIV-1)
[5] = molecular target: HIV-1 Env of isolate MGRM-D-024 (clade D pseudovirus) (HIV-1)
[6] = molecular target: HIV-1 Env of isolate MGRM-D-012 (clade D pseudovirus) (HIV-1)
[7] = molecular target: HIV-1 Env of isolate 94KE105 (listed under clade A; pseudovirus) (HIV-1)
[8] = molecular target: HIV-1 envelope glycoprotein (Env) of isolate MGRM-C-004 (HIV-1)
[9] = molecular target: HIV-1 Env of isolate MGRM-F1-020 (HIV-1)
[10] = molecular target: HIV-1 envelope glycoprotein (Env) of isolate TRJO4551.58, on pseudovirus (HIV-1)
[11] = molecular target: HIV-1 envelope glycoprotein (Env) of isolate MG RM-A-007, subtype A (HIV-1)
[12] = molecular target: HIV-1 envelope glycoprotein (Env) of isolate MG RM-A-005, subtype A (HIV-1)
[13] = molecular target: HIV-1 envelope glycoprotein (Env) of isolate MG RM-A-003, subtype A (HIV-1)
[14] = molecular target: HIV-1 envelope glycoprotein (Env) of isolate PVO.4, on pseudovirus (HIV-1)
[15] = molecular target: HIV-1 envelope glycoprotein (Env) of isolate 94 KE 105, subtype AC (HIV-1)
[16] = molecular target: HIV-1 envelope glycoprotein (Env) of isolate TRO.11, on pseudovirus (HIV-1)
[17] = molecular target: HIV-1 Env of isolate MGRM-AG-006 (pseudovirus) (HIV-1)
[18] = molecular target: HIV-1 JR-CSF Env I414A (HIV-1 (isolate JR-CSF)) (UniProt P20871)
[19] = molecular target: HIV-1 Env of isolate MGRM-AG-005 (pseudovirus) (HIV-1)
[20] = molecular target: HIV-1 Env of isolate MGRM-C-028 (subtype C), on pseudovirus (HIV-1)
[21] = molecular target: HIV-1 Env of isolate MGRM-D-001 (HIV-1)
[22] = molecular target: HIV-1 Env of isolate MGRM-C-026 (subtype C), on pseudovirus (HIV-1)
[23] = molecular target: HIV-1 Env of pseudovirus isolate 6535.3 (clade B) (HIV-1)
[24] = molecular target: HIV-1 Env of pseudovirus isolate MGRM-C-014 (clade C) (HIV-1)
[25] = molecular target: HIV-1 Env of pseudovirus isolate MGRM-C-007 (clade C) (HIV-1)
[26] = molecular target: HIV-1 Env of isolate MGRM-F1-017 (HIV-1)
[27] = molecular target: HIV-1 Env of isolate MGRM-D-021 (pseudovirus) (HIV-1)
[28] = molecular target: HIV-1 Env of isolate CAAN.A2 (HIV-1)
[29] = molecular target: HIV-1 Env of isolate MGRM-D-026 (HIV-1)
[30] = molecular target: HIV-1 Env of isolate MGRM-AG-002 (subtype AG) (HIV-1)
[31] = molecular target: HIV-1 Env of pseudovirus isolate MGRM-C-013 (clade C) (HIV-1)
[32] = molecular target: HIV-1 Env of isolate MGRM-A-005 (pseudovirus) (HIV-1)
[33] = molecular target: HIV-1 Env of isolate 92UG005 (pseudovirus) (HIV-1)
[34] = molecular target: HIV-1 Env of isolate MGRM-D-024 (HIV-1)

Sequence of 4995_P16 (PGT-145) (antibody) (VH): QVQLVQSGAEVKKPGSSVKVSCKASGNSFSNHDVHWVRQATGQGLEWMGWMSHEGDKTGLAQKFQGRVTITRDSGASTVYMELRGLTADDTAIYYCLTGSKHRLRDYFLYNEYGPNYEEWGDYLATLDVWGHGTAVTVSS
Sequence of 4995_P16 (PGT-145) (antibody) (VL): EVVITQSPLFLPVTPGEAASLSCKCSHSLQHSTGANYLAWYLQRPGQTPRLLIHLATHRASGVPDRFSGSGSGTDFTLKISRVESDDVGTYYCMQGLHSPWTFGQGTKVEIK
Sequence of 4995_E20 (PGT-142) (antibody) (VH): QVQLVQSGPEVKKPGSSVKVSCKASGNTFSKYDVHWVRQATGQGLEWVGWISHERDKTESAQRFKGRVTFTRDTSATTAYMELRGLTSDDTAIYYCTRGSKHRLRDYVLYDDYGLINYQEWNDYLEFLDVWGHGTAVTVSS
Sequence of 4995_E20 (PGT-142) (antibody) (VL): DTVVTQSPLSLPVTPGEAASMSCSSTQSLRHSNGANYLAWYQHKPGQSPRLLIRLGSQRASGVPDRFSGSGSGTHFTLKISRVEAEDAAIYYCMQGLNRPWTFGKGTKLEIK
Sequence of 4993_K13 (PGT-141) (antibody) (VH): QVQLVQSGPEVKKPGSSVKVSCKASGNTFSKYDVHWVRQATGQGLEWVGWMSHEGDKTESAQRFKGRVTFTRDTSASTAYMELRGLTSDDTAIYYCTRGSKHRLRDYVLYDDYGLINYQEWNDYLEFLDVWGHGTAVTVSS
Sequence of 4980_N08 (PGT-143) (antibody) (VH): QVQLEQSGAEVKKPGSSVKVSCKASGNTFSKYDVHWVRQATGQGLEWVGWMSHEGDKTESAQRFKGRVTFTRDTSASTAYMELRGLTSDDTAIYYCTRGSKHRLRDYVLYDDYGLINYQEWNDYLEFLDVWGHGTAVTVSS
Sequence of 4980_N08 (PGT-143) (antibody) (VL): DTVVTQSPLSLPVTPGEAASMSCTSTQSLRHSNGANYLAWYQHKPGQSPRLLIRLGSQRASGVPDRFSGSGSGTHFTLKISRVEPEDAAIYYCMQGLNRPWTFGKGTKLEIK
Sequence of 4970_K22 (PGT-144) (antibody) (VH): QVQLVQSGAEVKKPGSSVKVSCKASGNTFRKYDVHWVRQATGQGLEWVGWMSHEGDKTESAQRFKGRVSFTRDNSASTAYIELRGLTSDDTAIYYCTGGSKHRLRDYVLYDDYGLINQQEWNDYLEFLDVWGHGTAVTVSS
Sequence of 4970_K22 (PGT-144) (antibody) (VL): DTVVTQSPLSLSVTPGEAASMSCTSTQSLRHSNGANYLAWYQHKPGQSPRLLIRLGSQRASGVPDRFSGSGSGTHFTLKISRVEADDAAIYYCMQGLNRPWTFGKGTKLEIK

Substance | IC50 (µg/mL), pseudovirus neutralization [9] [µg/mL] | IC50, pseudovirus neutralization [10] [µg/mL] | IC50, pseudovirus neutralization [11] [µg/mL] | IC50, pseudovirus neutralization [12] [µg/mL] | IC50, pseudovirus neutralization [13] [µg/mL] | IC50, pseudovirus neutralization [14] [µg/mL] | IC50, pseudovirus neutralization [15] [µg/mL] | IC50, pseudovirus neutralization [16] [µg/mL] | IC50 (µg/mL), pseudovirus neutralization [17] [µg/mL] | Fold IC50 increase relative to wild-type (pseudovirus neutralization) [18] [fold] | IC50 (µg/mL), pseudovirus neutralization [19] [µg/mL] | IC50, pseudovirus neutralization [24] [µg/mL] | IC50, pseudovirus neutralization [25] [µg/mL] | IC50 (µg/mL), pseudovirus neutralization [26] [µg/mL] | IC50 (µg/mL), pseudovirus neutralization [27] [µg/mL] | IC50 (µg/mL), pseudovirus neutralization [28] [µg/mL] | IC50 (µg/mL), pseudovirus neutralization [29] [µg/mL] | IC50, pseudovirus neutralization [30] [µg/mL] | IC50, pseudovirus neutralization [31] [µg/mL] | IC50 (µg/mL), pseudovirus neutralization [32] [µg/mL] | further results
1496_C09 (PG9) (TCN-109) (antibody) | 6.4 |  |  |  |  |  |  |  |  |  |  |  |  |  |  |  |  |  |  |  | IC50 (µg/ml), pseudovirus neutralization [1]: 2.98 µg/mL; IC50 (µg/ml), pseudovirus neutralization [2]: 0.5 µg/mL; IC50 (µg/ml), pseudovirus neutralization [3]: 0.79 µg/mL; IC50 (µg/ml), pseudovirus neutralization [4]: 0.23 µg/mL; IC50, pseudovirus neutralization [5]: 0.03 µg/mL; IC50, pseudovirus neutralization [6]: 9.31 µg/mL; IC50 (µg/ml), pseudovirus neutralization [7]: 29.6 µg/mL; IC50 (µg/ml), pseudovirus neutralization [8]: 1.18 µg/mL
4838_L06 (PGT-121) (antibody) |  | 7.09 | > 50 | > 50 | 0.435 | 0.137 | 0.029 | 0.008 |  |  |  |  |  |  |  |  |  |  |  |  | 
4858_P08 (PGT-123) (antibody) |  | 16.9 | > 50 | > 50 | 0.495 | 0.105 | 0.024 | 0.008 | 0.014 | 0.3 | 0.149 |  |  |  |  |  |  |  |  |  | 
4877_D15 (PGT-122) (antibody) |  | > 50 | > 50 | > 50 | 3.79 | 0.689 | 0.056 | 0.011 | 0.028 |  | 33.9 |  |  |  |  |  |  |  |  |  | 
4970_K22 (PGT-144) (antibody) |  |  |  |  |  |  |  |  |  |  |  |  |  |  |  |  |  |  |  |  | IC50, single-round pseudovirus neutralization [20]: > 50 µg/mL; IC50 (µg/mL), pseudovirus neutralization [21]: > 50 µg/mL; IC50, single-round pseudovirus neutralization [22]: > 50 µg/mL; IC50, pseudovirus neutralization [23]: > 50 µg/mL
4980_N08 (PGT-143) (antibody) |  |  |  |  |  |  |  |  |  |  |  |  |  |  |  |  |  |  |  |  | IC50, single-round pseudovirus neutralization [20]: 12.4 µg/mL; IC50 (µg/mL), pseudovirus neutralization [21]: > 50 µg/mL; IC50, single-round pseudovirus neutralization [22]: > 50 µg/mL; IC50, pseudovirus neutralization [23]: > 50 µg/mL
4993_K13 (PGT-141) (antibody) |  |  |  |  |  |  |  |  |  |  |  |  |  |  |  |  |  |  |  |  | IC50, single-round pseudovirus neutralization [20]: 13.8 µg/mL; IC50 (µg/mL), pseudovirus neutralization [21]: > 50 µg/mL; IC50, single-round pseudovirus neutralization [22]: > 50 µg/mL; IC50, pseudovirus neutralization [23]: > 50 µg/mL
4995_E20 (PGT-142) (antibody) |  |  |  |  |  |  |  |  |  |  |  |  |  |  |  |  |  |  |  |  | IC50, single-round pseudovirus neutralization [20]: 2.12 µg/mL; IC50 (µg/mL), pseudovirus neutralization [21]: > 50 µg/mL; IC50, single-round pseudovirus neutralization [22]: > 50 µg/mL; IC50, pseudovirus neutralization [23]: > 50 µg/mL
4995_P16 (PGT-145) (antibody) |  |  |  |  |  |  |  |  |  |  |  |  |  |  |  |  |  |  |  |  | IC50, single-round pseudovirus neutralization [20]: 0.099 µg/mL; IC50 (µg/mL), pseudovirus neutralization [21]: 0.56 µg/mL; IC50, single-round pseudovirus neutralization [22]: > 50 µg/mL; IC50, pseudovirus neutralization [23]: > 50 µg/mL
5114_A19 (PGT-128) (antibody) | 0.355 |  |  |  |  |  |  |  |  | 1.4 |  | > 50 | 0.111 | 11.7 | 0.014 | 1.48 | > 50 | 4.99 | > 50 | > 50 | IC50 (µg/mL), pseudovirus neutralization [33]: 0.018 µg/mL; IC50 (µg/mL), pseudovirus neutralization [34]: 0.067 µg/mL
5123_A06 (PGT-125) (antibody) |  | 0.019 | > 50 | > 50 | > 50 | 0.042 | 0.004 | 0.111 | 0.008 | 0.3 | > 50 |  |  |  |  |  |  |  |  |  | 
5136_H01 (PGT-131) (antibody) | > 50 |  |  |  |  |  |  |  |  | 1 |  | > 50 | > 50 | > 50 | 0.106 | > 50 | > 50 | > 50 | > 50 | > 50 | IC50 (µg/mL), pseudovirus neutralization [33]: 0.854 µg/mL; IC50 (µg/mL), pseudovirus neutralization [34]: > 50 µg/mL
5141_B17 (PGT-126) (antibody) |  | 0.025 | > 50 | > 50 | > 50 | 0.017 | 0.006 | 0.041 | 0.01 | 0.4 | 1.21 |  |  |  |  |  |  |  |  |  | 
5145_B14 (PGT-127) (antibody) |  | 0.063 | > 50 | > 50 | > 50 | 0.164 | 0.023 | 0.079 | 0.021 | 2.2 | > 50 |  |  |  |  |  |  |  |  |  | 
5147_N06 (PGT-130) (antibody) | 9.73 |  |  |  |  |  |  |  |  | 0.7 |  | > 50 | > 50 | > 50 | 0.156 | > 50 | > 50 | > 50 | > 50 | > 50 | IC50 (µg/mL), pseudovirus neutralization [33]: 0.959 µg/mL; IC50 (µg/mL), pseudovirus neutralization [34]: > 50 µg/mL
5329_C19 (PGT-136) (antibody) | 9.31 |  |  |  |  |  |  |  |  |  |  | > 50 | > 50 | > 50 | > 50 | > 50 | > 50 | > 50 | > 50 | > 50 | IC50 (µg/mL), pseudovirus neutralization [33]: > 50 µg/mL; IC50 (µg/mL), pseudovirus neutralization [34]: > 50 µg/mL
5343_B08 (PGT-135) (antibody) | 0.168 |  |  |  |  |  |  |  |  | 1.2 |  | > 50 | > 50 | 7.79 | > 50 | 5.15 | > 50 | > 50 | > 50 | > 50 | IC50 (µg/mL), pseudovirus neutralization [33]: > 50 µg/mL; IC50 (µg/mL), pseudovirus neutralization [34]: > 50 µg/mL
5345_I01 (PGT-137) (antibody) | 1.93 |  |  |  |  |  |  |  |  |  |  | > 50 | > 50 | > 50 | > 50 | > 50 | > 50 | > 50 | > 50 | > 50 | IC50 (µg/mL), pseudovirus neutralization [33]: > 50 µg/mL; IC50 (µg/mL), pseudovirus neutralization [34]: > 50 µg/mL
PGV04 (antibody) | 5.99 |  |  |  |  |  |  |  | 1.23 |  | 0.027 |  |  | 2.38 |  |  |  |  |  |  | 
